Laboratory results reported in paper PMC12923268, “JAZ2/JAZ4-MYC2.1 module mediates MeJA-induced alleviation of chilling injury in peach fruit (Prunus persica)”.

Experiments:
PpMYC2.1 [1] = biological target: T1, PpMYC2.1 (Prunus persica, UniProt A0A251P353 1-687); assay: EMSA; Chemiluminescent EMSA Kit (Beyotime); buffer, salt, pH and temperature not stated; conditions: protein: recombinant; tags: His, SUMO (pET-SUMO); chain copies: 2; label: 3' biotin; blunt
PpMYC2.1 [2] = biological target: T1, PpMYC2.1; assay: competition; mutant competitor vs N3; failed to compete effectively; Chemiluminescent EMSA Kit (Beyotime); buffer, salt, pH and temperature not stated; conditions: protein: recombinant; tags: His, SUMO (pET-SUMO); chain copies: 2; blunt
PpMYC2.1 [3] = biological target: T1, PpMYC2.1; assay: competition; mutant competitor vs N1; failed to compete effectively; Chemiluminescent EMSA Kit (Beyotime); buffer, salt, pH and temperature not stated; conditions: protein: recombinant; tags: His, SUMO (pET-SUMO); chain copies: 2; blunt
PpMYC2.1 [4] = biological target: T1, PpMYC2.1; assay: competition; mutant competitor vs N5; failed to compete effectively; Chemiluminescent EMSA Kit (Beyotime); buffer, salt, pH and temperature not stated; conditions: protein: recombinant; tags: His, SUMO (pET-SUMO); chain copies: 2; blunt

T1 sequence (A0A251P353 entry or part of it): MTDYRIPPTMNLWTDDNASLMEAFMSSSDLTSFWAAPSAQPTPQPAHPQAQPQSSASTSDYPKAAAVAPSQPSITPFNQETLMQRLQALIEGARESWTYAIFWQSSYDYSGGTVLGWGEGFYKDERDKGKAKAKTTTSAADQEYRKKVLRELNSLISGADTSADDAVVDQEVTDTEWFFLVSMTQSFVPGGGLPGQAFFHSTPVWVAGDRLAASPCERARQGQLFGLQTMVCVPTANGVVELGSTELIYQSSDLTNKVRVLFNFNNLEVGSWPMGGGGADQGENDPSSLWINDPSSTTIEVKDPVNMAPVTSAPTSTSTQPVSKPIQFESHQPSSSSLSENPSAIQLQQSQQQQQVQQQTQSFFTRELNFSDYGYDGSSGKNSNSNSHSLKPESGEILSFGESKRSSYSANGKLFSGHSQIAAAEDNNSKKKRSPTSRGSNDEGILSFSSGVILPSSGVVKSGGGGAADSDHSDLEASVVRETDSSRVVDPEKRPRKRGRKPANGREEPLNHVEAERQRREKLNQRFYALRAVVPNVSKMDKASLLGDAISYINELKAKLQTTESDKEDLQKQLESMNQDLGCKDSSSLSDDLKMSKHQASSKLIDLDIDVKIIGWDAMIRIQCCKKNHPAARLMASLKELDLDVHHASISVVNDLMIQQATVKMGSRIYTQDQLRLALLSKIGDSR

Binder | binding result (PpMYC2.1 [1]) | also measured
PpCHS probe (dsDNA) DNA 1: AGAAAACCACGTGGGACAAAACCCTAGA DNA 2: TCTAGGGTTTTGTCCCACGTGGTTTTCT | binds | –
Pp4CL probe (dsDNA) DNA 1: GCATGGGACACACGTGTTCAAATACTTGTATGA DNA 2: TCATACAAGTATTTGAACACGTGTGTCCCATGC | binds | –
PpCHI3 probe (PpCHI) (dsDNA) DNA 1: CATCTACCCACGTGTTCAACAATTCAA DNA 2: TTGAATTGTTGAACACGTGGGTAGATG | binds | –
PpHB.G7 probe (dsDNA) DNA 1: GTGGCGTGAGAACACGTGTGGCCGTTACGC DNA 2: GCGTAACGGCCACACGTGTTCTCACGCCAC | binds | –
PpHB.G7 mut (dsDNA) DNA 1: GTGGCGTGAGAAAAAAAATGGCCGTTACGC DNA 2: GCGTAACGGCCATTTTTTTTCTCACGCCAC | – | binding result (PpMYC2.1 [2]): no binding
PpPG2 probe (dsDNA) DNA 1: GACAACAATTCCACATGTCCTATGTTTATTG DNA 2: CAATAAACATAGGACATGTGGAATTGTTGTC | binds | –
PpERF61 probe (dsDNA) DNA 1: ACAAGTTGAGCATGTGTACCCAATTGCT DNA 2: AGCAATTGGGTACACATGCTCAACTTGT | binds | –
PpXTH2 probe (dsDNA) DNA 1: TGAGGCGCACATGGAACAAAATTAG DNA 2: CTAATTTTGTTCCATGTGCGCCTCA | binds | –
PpERF61 mut (dsDNA) DNA 1: ACAAGTTGAGAAAAAATACCCAATTGCT DNA 2: AGCAATTGGGTATTTTTTCTCAACTTGT | – | binding result (PpMYC2.1 [3]): no binding
PpIAA1 probe (dsDNA) DNA 1: AGTAGTTGGCACGTGTTATAAATAATA DNA 2: TATTATTTATAACACGTGCCAACTACT | binds | –
PpIAA1 mut (dsDNA) DNA 1: AGTAGTTGGAAAAAATTATAAATAATA DNA 2: TATTATTTATAATTTTTTCCAACTACT | – | binding result (PpMYC2.1 [4]): no binding
PpPL1 probe (dsDNA) DNA 1: CACACACTCACATGTTGCTAAATT DNA 2: AATTTAGCAACATGTGAGTGTGTG | binds | –
PpPAL1 probe (dsDNA) DNA 1: GGCAACCACATGGATGAATTGTTAT DNA 2: ATAACAATTCATCCATGTGGTTGCC | binds | –
